Results from the supplement of paper PMC10126150.
± gives the standard deviation of the averaged measurements.

Tested on: ATP
Test: switch fluorescence ratio, 500 uM ATP over buffer (Cy3 cluster intensity, sum of 5 cycles each) (fold (ratio)); higher = stronger signal-on switching upon ATP binding; sequences stand for … in TCGTCGGCAGCGTCAGATGTGTATAAGAGACAGTTTTTTTTTTTTTTTTTTTTTTTTT…TC
Settings: aptamer strand: ATP DNA aptamer (quencher-CACCTGGGGGAGTATTGCGGAGGAAGG + anchor), 100 nM annealed; ATP concentration: 500 uM
Procedure, shortened: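 Values give the fluorescence ratio for each switch-domain sequence, averaged from per-cluster ratios of summed target-cycle to summed buffer-cycle Cy3 intensity. The Cy3-labelled switching-strand clusters sat on a modified Illumina MiSeq flow-cell, were annealed to 100 nM quencher-labelled ATP aptamer, and were imaged in selection buffer, then after 15 min with 500 uM ATP at 22 °C. Five cycles ran with NaOH stripping and re-annealing between them, and clusters outside 100-1000 RFU were excluded.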
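Further: ATP exposure 15 min at 22 °C before imaging.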

Sequence	switch fluorescence ratio
GATAAGTCAG	0.989 ± 0.018
GATAATAAAC	1.06 ± 0.045
GATAATTAGG	1.01 ± 0.02
GATAATTGTC	0.951 ± 0.048
GATAATTTTT	0.9884 ± 0.0084
GATACATAAA	1.036 ± 0.0092
GATACATCGG	1.03 ± 0.018
GATACCTTCG	2.614 ± 0.023
GATACGGGGC	1.02 ± 0.014
GATACGGTTA	1.03 ± 0.011
GATACTCAGC	1.06 ± 0.0058
GATAGAAGTG	0.986 ± 0.014
GATAGACCAG	1.01 ± 0.025
GATAGAGGGA	0.999 ± 0.01
GATAGATAGG	0.967 ± 0.055
GATAGATCAC	1.03 ± 0.03
GATAGCTTTT	1.05 ± 0.082
GATAGGAAAT	0.977 ± 0.036
GATAGGAGGG	0.959 ± 0.012
GATAGGATAG	0.991 ± 0.019
GATAGGGCGC	1.02 ± 0.026
GATAGGGGGT	1.01 ± 0.061
GATAGGGGTG	1.03 ± 0.03
GATAGGGTAA	0.988 ± 0.039
GATAGTAGTT	0.9851 ± 0.0096

Sequence	switch fluorescence ratio
GATAGTCGTG	0.994 ± 0.0056
GATAGTGAAG	0.993 ± 0.015
GATAGTGC	1.06 ± 0.078
GATAGTGGGA	0.997 ± 0.018
GATAGTGTCG	1.04 ± 0.045
GATAGTTGTA	1.01 ± 0.028
GATATAGGTT	1 ± 0.02
GATATATTGT	0.993 ± 0.035
GATATCAACG	1 ± 0.047
GATATGATCA	0.9733 ± 0.0052
GATATGCTAC	1.2 ± 0.023
GATATGCTAT	0.9915 ± 0.0066
GATATGTTGG	0.999 ± 0.017
GATATTAAAG	1.02 ± 0.014
GATATTAGGA	1 ± 0.088
GATATTGGGC	1.02 ± 0.024
GATATTTGCG	1.015 ± 0.0024
GATATTTGTG	0.995 ± 0.016
GATATTTTTA	0.98 ± 0.034
GATCAAAGGG	1.01 ± 0.021
GATCAAGGGA	1.03 ± 0.052
GATCACTCGT	1 ± 0.048
GATCAGAGGG	1.008 ± 0.01
GATCATCAGT	0.991 ± 0.023
GATCATTCTT	1.01 ± 0.016

Sequence	switch fluorescence ratio
GATCATTGAC	1.066 ± 0.0057
GATCCAGAAG	1.017 ± 0.0036
GATCCTGGGT	0.974 ± 0.034
GATCGAAAGG	0.966 ± 0.025
GATCGAGAGG	0.98 ± 0.025
GATCGAGGCG	0.9569 ± 0.0055
GATCGATTG	1.05 ± 0.051
GATCGCGTGG	0.968 ± 0.012
GATCGCTATC	2.91 ± 0.39
GATCGGGAAC	1.06 ± 0.031
GATCTAGGGC	1.02 ± 0.037
GATCTATTTT	1.01 ± 0.018
GATCTGCCTG	0.985 ± 0.029
GATCTGGGGC	1.06 ± 0.036
GATCTTAGGG	0.989 ± 0.028
GATCTTGGGT	1.11 ± 0.19
GATGAAAAAG	1.033 ± 0.0093
GATGAAATTG	0.953 ± 0.045
GATGAAGATT	1.011 ± 0.005
GATGAAGGTA	0.991 ± 0.052
GATGAATGGA	0.959 ± 0.011
GATGAATTGG	0.975 ± 0.012
GATGACTTGC	1 ± 0.064
GATGAGAGGA	1.03 ± 0.05
GATGAGCCCT	1.03 ± 0.015

Sequence	switch fluorescence ratio
GATGAGCGCC	1.03 ± 0.037
GATGAGGCGG	0.9832 ± 0.0015
GATGAGGTGC	1.07 ± 0.024
GATGATAAAA	0.989 ± 0.033
GATGATAACG	0.99754 ± 0.00091
GATGATCGTT	0.988 ± 0.0094
GATGATCTAT	1.01 ± 0.035
GATGATGGTG	0.968 ± 0.011
GATGCAGTTC	1.66 ± 0.053
GATGCATGC	1.22 ± 0.065
GATGCCACAG	1.02 ± 0.07
GATGCCGTAG	0.9997 ± 0.0036
GATGCGACCA	1.04 ± 0.065
GATGCGGGGG	1.02 ± 0.039
GATGCGGGTG	1.07 ± 0.016
GATGCGTGGC	0.998 ± 0.027
GATGCTAGAT	1.01 ± 0.026
GATGGAAAAA	1.04 ± 0.012
GATGGACAGC	1.04 ± 0.041
GATGGAGGGG	0.9965 ± 0.0039
GATGGATCGA	0.977 ± 0.039
GATGGATCGG	1.01 ± 0.017
GATGGATGGA	1.05 ± 0.026
GATGGCAAGG	1.04 ± 0.043
GATGGCCACG	0.9881 ± 0.0047

Sequence	switch fluorescence ratio
GATGGCCAGC	1.01 ± 0.041
GATGGCGGGG	0.981 ± 0.03
GATGGCGGGT	1.02 ± 0.07
GATGGCGTAT	0.98 ± 0.031
GATGGGAAGT	1.01 ± 0.024
GATGGGACAG	1.01 ± 0.0019
GATGGGAGGG	0.99 ± 0.027
GATGGGCTAA	1.04 ± 0.022
GATGGGCTTT	0.983 ± 0.024
GATGGGGCAC	1.01 ± 0.013
GATGGGGCGG	1.01 ± 0.048
GATGGGGTAA	0.997 ± 0.008
GATGGGTTTC	0.987 ± 0.012
GATGGTAACT	0.984 ± 0.017
GATGGTATTT	0.9794 ± 0.0062
GATGGTGTGG	0.997 ± 0.015
GATGGTTCGC	0.976 ± 0.015
GATGTAGGAT	0.978 ± 0.014
GATGTAGGGA	1.02 ± 0.029
GATGTATATG	0.992 ± 0.018
GATGTATGTT	0.978 ± 0.037
GATGTCAGGT	1.03 ± 0.044
GATGTCCCAG	1 ± 0.017
GATGTCGTTT	1.02 ± 0.049
GATGTCTGTT	0.955 ± 0.021

Sequence	switch fluorescence ratio
GATGTGCAAA	1.01 ± 0.022
GATGTGCCAG	0.969 ± 0.017
GATGTGCGAG	1.01 ± 0.017
GATGTGGGGC	0.996 ± 0.029
GATGTGTAGA	0.999 ± 0.018
GATGTGTGTT	0.9735 ± 0.0089
GATGTTAGGT	0.996 ± 0.023
GATGTTCGTG	0.994 ± 0.014
GATGTTGCGT	1.018 ± 0.004
GATGTTGGAA	0.997 ± 0.034
GATGTTTGAG	0.991 ± 0.017
GATGTTTGGC	1.05 ± 0.013
GATGTTTGGG	0.987 ± 0.019
GATGTTTGGT	0.99 ± 0.021
GATGTTTTGA	1 ± 0.018
GATTAAAACT	1.07 ± 0.025
GATTAAAATT	0.951 ± 0.064
GATTAAGGGT	1.04 ± 0.03
GATTAATAAG	1.16 ± 0.26
GATTAATCTG	0.962 ± 0.015
GATTAATGAG	1.01 ± 0.027
GATTACATGC	1.01 ± 0.037
GATTACTTTG	0.9562 ± 0.0039
GATTAGAGGG	0.9877 ± 0.0081
GATTATTAGC	0.9999 ± 0.004

Sequence	switch fluorescence ratio
GATTATTAGT	1.012 ± 0.01
GATTATTCTT	1.03 ± 0.035
GATTATTGGA	1.01 ± 0.026
GATTATTTGG	0.986 ± 0.011
GATTCAAGTG	0.96 ± 0.022
GATTCAGGAC	1.04 ± 0.012
GATTCATTAT	0.988 ± 0.011
GATTCCTATC	0.996 ± 0.039
GATTCGAATC	1 ± 0.034
GATTCGATCT	0.993 ± 0.024
GATTCTATAG	0.988 ± 0.036
GATTGAAAGG	0.957 ± 0.0097
GATTGAATAA	0.997 ± 0.019
GATTGACCCT	1.048 ± 0.0092
GATTGACGGC	1 ± 0.045
GATTGACGTG	0.957 ± 0.08
GATTGAGCGG	1.01 ± 0.018
GATTGATTTA	1 ± 0.021
GATTGCAGTA	0.983 ± 0.036
GATTGCCGCG	1 ± 0.047
GATTGCCGTG	1.03 ± 0.024
GATTGCGGTC	1.03 ± 0.016
GATTGCTGGT	0.9513 ± 0.0046
GATTGGATCG	0.9904 ± 0.0051
GATTGGCGCG	1.006 ± 0.0031

Sequence	switch fluorescence ratio
GATTGGGCTC	1.02 ± 0.036
GATTGGGGCT	1.02 ± 0.039
GATTGGGTGT	1.03 ± 0.054
GATTGGTATT	0.995 ± 0.044
GATTGGTTCC	1.05 ± 0.036
GATTGTAGGT	1 ± 0.015
GATTGTGATG	0.9724 ± 0.0055
GATTGTGTG	0.998 ± 0.03
GATTTAATAG	0.9625 ± 0.0076
GATTTAATCC	0.974 ± 0.032
GATTTACTGG	1.04 ± 0.024
GATTTAGACG	0.945 ± 0.06
GATTTAGATT	1 ± 0.046
GATTTATATC	0.993 ± 0.028
GATTTCAGCT	0.997 ± 0.019
GATTTCATG	0.993 ± 0.019
GATTTCTCGT	0.9551 ± 0.0021
GATTTGACGG	0.983 ± 0.022
GATTTGATTT	0.991 ± 0.037
GATTTGCAGG	0.983 ± 0.033
GATTTGCATC	1.03 ± 0.025
GATTTGCTTT	0.98 ± 0.013
GATTTGGAGC	0.9911 ± 0.0076
GATTTGGAGT	0.985 ± 0.018
GATTTGGCTG	0.986 ± 0.019
